US20150344570A1 (published 2015)

B1: GpH7-B3 variant K334_01G/GpL16-k0 (antibody, human IgG1, kappa)
heavy: not shown
light: DIVMTQSPLSLPVTPGEPASISCQASESLVHSNRNTYLHWYLQKPGQSPQLLIYKVSNRFSGVPDRFSGSGSGTDFTLKISRVEAEDVGVYYCSQNTHVPPTFGQGTKVEIERTVAAPSVFIFPPSDEQLKSGTASVVCLLNNFYPREAKVQWKVDNALQSGNSQESVTEQDSKDSTYSLSSTLTLSKADYEKHKVYACEVTHQGLSSPVTKSFNRGEC
notes: Alteration in both H chains; also called Ho Ab K334_01G
B2: GpH7-B3 variant S324_10E/GpL16-k0 (antibody, human IgG1, kappa)
heavy: not shown
light: B1 light
notes: Alteration in both H chains; also called Ho Ab S324_10E
B3: GpH7-B3 variant K326_20W/GpL16-k0 (antibody, human IgG1, kappa)
heavy: not shown
light: B1 light
notes: Alteration in both H chains; also called Ho Ab K326_20W
B4: GpH7-B3 variant S267_10E/GpL16-k0 (antibody, human IgG1, kappa)
heavy: not shown
light: B1 light
notes: Alteration in both H chains; also called Ho Ab S267_10E
B5: GpH7-B3 variant T335_01G/GpL16-k0 (antibody, human IgG1, kappa)
heavy: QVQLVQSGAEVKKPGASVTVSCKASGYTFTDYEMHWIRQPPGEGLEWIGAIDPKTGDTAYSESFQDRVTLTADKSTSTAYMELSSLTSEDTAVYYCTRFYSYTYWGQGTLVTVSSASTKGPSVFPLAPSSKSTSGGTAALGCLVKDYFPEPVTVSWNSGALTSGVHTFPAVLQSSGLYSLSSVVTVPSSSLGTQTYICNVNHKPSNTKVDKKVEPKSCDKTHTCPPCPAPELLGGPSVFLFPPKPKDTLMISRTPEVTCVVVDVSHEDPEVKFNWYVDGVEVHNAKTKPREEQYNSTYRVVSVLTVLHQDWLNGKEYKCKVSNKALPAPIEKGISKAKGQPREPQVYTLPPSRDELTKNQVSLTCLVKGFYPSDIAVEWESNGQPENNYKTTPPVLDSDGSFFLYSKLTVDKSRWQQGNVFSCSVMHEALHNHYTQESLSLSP
light: B1 light
notes: Alteration in both H chains; also called Ho Ab T335_01G
B6: GpH7-B3 variant K326_08L/GpL16-k0 (antibody, human IgG1, kappa)
heavy: not shown
light: B1 light
notes: Alteration in both H chains; also called Ho Ab K326_08L
B7: GpH7-B3 variant S337_18N/GpL16-k0 (antibody, human IgG1, kappa)
heavy: not shown
light: B1 light
notes: Alteration in both H chains; also called Ho Ab S337_18N
B8: GpH7-B3 variant K326_09D/GpL16-k0 (antibody, human IgG1, kappa)
heavy: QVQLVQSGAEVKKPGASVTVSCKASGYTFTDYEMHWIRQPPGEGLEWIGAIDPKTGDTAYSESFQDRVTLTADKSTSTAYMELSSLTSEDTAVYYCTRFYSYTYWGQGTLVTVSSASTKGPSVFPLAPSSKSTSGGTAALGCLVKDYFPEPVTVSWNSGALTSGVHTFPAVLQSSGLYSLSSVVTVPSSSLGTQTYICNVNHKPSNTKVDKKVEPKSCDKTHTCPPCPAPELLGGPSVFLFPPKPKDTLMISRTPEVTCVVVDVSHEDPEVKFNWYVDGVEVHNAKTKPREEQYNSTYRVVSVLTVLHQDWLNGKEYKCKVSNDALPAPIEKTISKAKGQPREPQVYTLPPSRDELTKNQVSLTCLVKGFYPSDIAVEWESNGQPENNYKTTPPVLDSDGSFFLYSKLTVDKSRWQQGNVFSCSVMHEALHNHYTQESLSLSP
light: B1 light
notes: Alteration in both H chains; also called Ho Ab K326_09D
B9: GpH7-B3 variant K334_05P/GpL16-k0 (antibody, human IgG1, kappa)
heavy: not shown
light: B1 light
notes: Alteration in both H chains; also called Ho Ab K334_05P
B10: GpH7-B3 variant I336_16H/GpL16-k0 (antibody, human IgG1, kappa)
heavy: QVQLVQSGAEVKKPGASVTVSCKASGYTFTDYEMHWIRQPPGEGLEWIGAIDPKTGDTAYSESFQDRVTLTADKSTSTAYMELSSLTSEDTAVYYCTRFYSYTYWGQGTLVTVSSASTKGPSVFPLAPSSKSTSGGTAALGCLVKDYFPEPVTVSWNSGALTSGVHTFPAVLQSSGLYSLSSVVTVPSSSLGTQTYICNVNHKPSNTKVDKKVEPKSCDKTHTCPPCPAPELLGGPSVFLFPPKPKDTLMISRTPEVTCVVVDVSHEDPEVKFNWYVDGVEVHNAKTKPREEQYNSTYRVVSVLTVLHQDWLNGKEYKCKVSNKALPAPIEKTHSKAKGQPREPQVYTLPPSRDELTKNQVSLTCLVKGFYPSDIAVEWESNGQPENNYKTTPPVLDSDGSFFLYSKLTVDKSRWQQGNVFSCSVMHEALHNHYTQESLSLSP
light: B1 light
notes: Alteration in both H chains; also called Ho Ab I336_16H
B11: GpH7-B3 variant K326_10E/GpL16-k0 (antibody, human IgG1, kappa)
heavy: not shown
light: B1 light
notes: Alteration in both H chains; also called Ho Ab K326_10E
B12: GpH7-B3 variant Q295_10E/GpL16-k0 (antibody, human IgG1, kappa)
heavy: not shown
light: B1 light
notes: Alteration in both H chains; also called Ho Ab Q295_10E
B13: GpH7-B3 variant Q295_12R/GpL16-k0 (antibody, human IgG1, kappa)
heavy: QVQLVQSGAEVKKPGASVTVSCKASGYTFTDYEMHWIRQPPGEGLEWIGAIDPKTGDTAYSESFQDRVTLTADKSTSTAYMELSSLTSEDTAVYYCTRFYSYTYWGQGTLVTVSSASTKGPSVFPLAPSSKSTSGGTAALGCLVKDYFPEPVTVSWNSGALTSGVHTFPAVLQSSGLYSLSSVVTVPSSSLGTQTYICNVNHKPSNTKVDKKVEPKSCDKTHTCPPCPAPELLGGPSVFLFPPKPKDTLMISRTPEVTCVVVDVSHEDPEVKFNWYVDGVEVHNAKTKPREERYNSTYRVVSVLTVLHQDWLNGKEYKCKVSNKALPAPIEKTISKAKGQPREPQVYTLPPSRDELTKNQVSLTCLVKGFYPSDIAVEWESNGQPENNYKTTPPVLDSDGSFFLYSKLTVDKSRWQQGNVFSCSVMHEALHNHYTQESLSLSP
light: B1 light
notes: Alteration in both H chains; also called Ho Ab Q295_12R
B14: GpH7-B3 variant K334_18N/GpL16-k0 (antibody, human IgG1, kappa)
heavy: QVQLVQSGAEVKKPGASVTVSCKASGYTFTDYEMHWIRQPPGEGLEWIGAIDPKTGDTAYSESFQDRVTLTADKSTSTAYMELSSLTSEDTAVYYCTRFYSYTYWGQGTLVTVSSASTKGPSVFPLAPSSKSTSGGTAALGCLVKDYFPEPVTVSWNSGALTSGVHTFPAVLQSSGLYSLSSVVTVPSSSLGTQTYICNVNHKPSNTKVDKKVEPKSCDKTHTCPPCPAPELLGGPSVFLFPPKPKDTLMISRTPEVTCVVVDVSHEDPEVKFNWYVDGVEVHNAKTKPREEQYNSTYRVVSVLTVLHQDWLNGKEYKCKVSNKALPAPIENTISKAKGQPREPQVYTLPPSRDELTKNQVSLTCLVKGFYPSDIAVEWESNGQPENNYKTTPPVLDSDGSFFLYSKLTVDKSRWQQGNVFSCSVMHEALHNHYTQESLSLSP
light: B1 light
notes: Alteration in both H chains; also called Ho Ab K334_18N
B15: GpH7-B3 variant K334_13S/GpL16-k0 (antibody, human IgG1, kappa)
heavy: not shown
light: B1 light
notes: Alteration in both H chains; also called Ho Ab K334_13S
B16: GpH7-B3 variant S337_11K/GpL16-k0 (antibody, human IgG1, kappa)
heavy: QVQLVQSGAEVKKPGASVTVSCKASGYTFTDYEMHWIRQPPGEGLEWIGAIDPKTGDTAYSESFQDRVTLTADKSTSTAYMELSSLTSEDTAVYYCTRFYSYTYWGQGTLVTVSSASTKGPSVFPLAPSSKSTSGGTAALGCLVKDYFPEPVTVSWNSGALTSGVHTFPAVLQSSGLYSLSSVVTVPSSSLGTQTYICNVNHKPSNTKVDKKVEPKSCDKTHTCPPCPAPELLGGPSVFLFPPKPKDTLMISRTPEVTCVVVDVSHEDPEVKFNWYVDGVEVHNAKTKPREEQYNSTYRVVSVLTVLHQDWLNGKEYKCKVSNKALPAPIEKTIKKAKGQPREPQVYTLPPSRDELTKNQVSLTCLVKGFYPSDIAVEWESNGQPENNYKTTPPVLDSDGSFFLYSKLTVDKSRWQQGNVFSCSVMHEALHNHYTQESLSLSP
light: B1 light
notes: Alteration in both H chains; also called Ho Ab S337_11K
B17: GpH7-B3 variant S239_10E/GpL16-k0 (antibody, human IgG1, kappa)
heavy: not shown
light: B1 light
notes: Alteration in both H chains; also called Ho Ab S239_10E
B18: GpH7-B3 variant S267_06M/GpL16-k0 (antibody, human IgG1, kappa)
heavy: not shown
light: B1 light
notes: Alteration in both H chains; also called Ho Ab S267_06M
B19: GpH7-B3 variant P271_18N/GpL16-k0 (antibody, human IgG1, kappa)
heavy: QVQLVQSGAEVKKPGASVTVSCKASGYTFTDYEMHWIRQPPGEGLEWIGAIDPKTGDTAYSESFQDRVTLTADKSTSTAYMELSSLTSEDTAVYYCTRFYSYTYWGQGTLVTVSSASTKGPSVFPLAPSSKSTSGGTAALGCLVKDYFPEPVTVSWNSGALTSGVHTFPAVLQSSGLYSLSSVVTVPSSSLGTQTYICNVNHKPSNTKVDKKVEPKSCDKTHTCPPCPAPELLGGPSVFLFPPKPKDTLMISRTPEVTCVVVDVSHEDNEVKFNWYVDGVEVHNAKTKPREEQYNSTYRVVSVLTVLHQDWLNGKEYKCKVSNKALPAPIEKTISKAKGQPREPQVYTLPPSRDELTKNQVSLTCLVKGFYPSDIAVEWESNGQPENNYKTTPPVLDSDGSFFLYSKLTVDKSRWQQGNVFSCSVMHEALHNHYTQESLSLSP
light: B1 light
notes: Alteration in both H chains; also called Ho Ab P271_18N
B20: GpH7-B3 variant K326_03V/GpL16-k0 (antibody, human IgG1, kappa)
heavy: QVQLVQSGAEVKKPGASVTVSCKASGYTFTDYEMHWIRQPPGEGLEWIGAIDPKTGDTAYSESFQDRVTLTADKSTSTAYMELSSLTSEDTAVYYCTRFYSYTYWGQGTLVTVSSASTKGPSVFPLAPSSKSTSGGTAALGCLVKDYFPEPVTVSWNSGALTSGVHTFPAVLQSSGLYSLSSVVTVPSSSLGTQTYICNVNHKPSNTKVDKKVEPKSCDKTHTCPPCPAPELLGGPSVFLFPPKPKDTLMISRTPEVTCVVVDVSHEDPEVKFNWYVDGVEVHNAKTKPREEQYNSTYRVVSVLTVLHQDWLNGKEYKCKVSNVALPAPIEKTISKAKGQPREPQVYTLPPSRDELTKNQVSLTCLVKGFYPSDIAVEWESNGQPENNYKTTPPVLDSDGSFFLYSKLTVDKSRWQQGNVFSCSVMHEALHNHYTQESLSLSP
light: B1 light
notes: Alteration in both H chains; also called Ho Ab K326_03V
B21: GpH7-B3 variant L328_15Y/GpL16-k0 (antibody, human IgG1, kappa)
heavy: not shown
light: B1 light
notes: Alteration in both H chains; also called Ho Ab L328_15Y
B22: GpH7-B3 variant K334_08L/GpL16-k0 (antibody, human IgG1, kappa)
heavy: not shown
light: B1 light
notes: Alteration in both H chains; also called Ho Ab K334_08L
B23: GpH7-B3 variant S298_09D/GpL16-k0 (antibody, human IgG1, kappa)
heavy: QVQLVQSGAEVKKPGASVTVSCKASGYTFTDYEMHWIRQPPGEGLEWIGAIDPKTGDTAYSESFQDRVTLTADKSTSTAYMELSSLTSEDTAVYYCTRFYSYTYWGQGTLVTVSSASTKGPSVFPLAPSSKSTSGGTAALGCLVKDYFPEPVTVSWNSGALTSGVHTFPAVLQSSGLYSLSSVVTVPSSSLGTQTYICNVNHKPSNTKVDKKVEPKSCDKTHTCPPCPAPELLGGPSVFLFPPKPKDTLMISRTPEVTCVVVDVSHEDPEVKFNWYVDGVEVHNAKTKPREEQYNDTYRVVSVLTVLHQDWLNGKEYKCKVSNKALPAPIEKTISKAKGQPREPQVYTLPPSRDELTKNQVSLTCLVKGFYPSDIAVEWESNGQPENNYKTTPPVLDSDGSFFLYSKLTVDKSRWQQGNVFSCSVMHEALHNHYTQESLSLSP
light: B1 light
notes: Alteration in both H chains; also called Ho Ab S298_09D
B24: GpH7-B3 variant K334_16H/GpL16-k0 (antibody, human IgG1, kappa)
heavy: not shown
light: B1 light
notes: Alteration in both H chains; also called Ho Ab K334_16H
B25: GpH7-B3 variant T335_02A/GpL16-k0 (antibody, human IgG1, kappa)
heavy: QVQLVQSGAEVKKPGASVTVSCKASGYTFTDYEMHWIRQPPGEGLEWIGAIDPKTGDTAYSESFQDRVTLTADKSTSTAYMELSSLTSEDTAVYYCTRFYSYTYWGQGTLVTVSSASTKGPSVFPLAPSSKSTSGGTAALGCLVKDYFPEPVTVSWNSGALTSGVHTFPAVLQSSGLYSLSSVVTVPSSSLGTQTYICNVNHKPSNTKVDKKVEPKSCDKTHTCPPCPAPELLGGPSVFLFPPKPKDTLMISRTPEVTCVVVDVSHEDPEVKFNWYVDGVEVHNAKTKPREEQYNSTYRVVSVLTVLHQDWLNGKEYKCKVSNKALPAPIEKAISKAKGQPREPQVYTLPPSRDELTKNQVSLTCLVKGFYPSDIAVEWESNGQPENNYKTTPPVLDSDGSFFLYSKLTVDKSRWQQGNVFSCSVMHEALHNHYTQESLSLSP
light: B1 light
notes: Alteration in both H chains; also called Ho Ab T335_02A
B26: GpH7-B3 variant K334_09D/GpL16-k0 (antibody, human IgG1, kappa)
heavy: not shown
light: B1 light
notes: Alteration in both H chains; also called Ho Ab K334_09D

Biological target: T1, FcγRIa (human, UniProt P12314 16-292)
T1 construct: extracellular domain; also called FcgRI; FcgRIa; not shown: His tag attached to the C terminus
T1 sequence (P12314 16-292): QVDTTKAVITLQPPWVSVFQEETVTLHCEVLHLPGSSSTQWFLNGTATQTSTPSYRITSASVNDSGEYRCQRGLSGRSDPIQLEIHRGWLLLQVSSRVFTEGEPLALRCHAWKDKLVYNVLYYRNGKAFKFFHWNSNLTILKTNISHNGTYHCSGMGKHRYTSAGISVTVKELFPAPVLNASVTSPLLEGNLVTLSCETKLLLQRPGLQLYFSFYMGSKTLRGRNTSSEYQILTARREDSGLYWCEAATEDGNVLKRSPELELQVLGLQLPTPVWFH
Test: SPR (Biacore), relative binding; control HoCon Ab GpH7-B3/GpL16-k0

Row | Ho/Con_1a | Binder
1 | 106 % of control (=100) | B1
2 | 106 % of control (=100) | B2
3 | 104 % of control (=100) | B3
4 | 107 % of control (=100) | B4
5 | 106 % of control (=100) | B5
6 | 101 % of control (=100) | B6
7 | 106 % of control (=100) | B7
8 | 106 % of control (=100) | B8
9 | 106 % of control (=100) | B9
10 | 114 % of control (=100) | B10
11 | 105 % of control (=100) | B11
12 | 105 % of control (=100) | B12
13 | 101 % of control (=100) | B13
14 | 108 % of control (=100) | B14
15 | 106 % of control (=100) | B15
16 | 105 % of control (=100) | B16
17 | 106 % of control (=100) | B17
18 | 106 % of control (=100) | B18
19 | 103 % of control (=100) | B19
20 | 103 % of control (=100) | B20
21 | 104 % of control (=100) | B21
22 | 108 % of control (=100) | B22
23 | 106 % of control (=100) | B23
24 | 106 % of control (=100) | B24
25 | 105 % of control (=100) | B25
26 | 108 % of control (=100) | B26
